Assay results from paper PMC4122391, “Analysis of Functions of VIP1 and Its Close Homologs in Osmosensory Responses of Arabidopsis thaliana”.

T1: GST-VIP1ΔN164 (Arabidopsis thaliana, UniProt Q9MA75 165-341)
T1 sequence: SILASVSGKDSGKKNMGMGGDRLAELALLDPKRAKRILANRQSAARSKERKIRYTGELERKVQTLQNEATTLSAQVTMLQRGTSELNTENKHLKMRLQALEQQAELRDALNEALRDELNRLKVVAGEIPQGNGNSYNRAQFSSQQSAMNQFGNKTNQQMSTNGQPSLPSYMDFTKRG

B1: A1 (dsDNA)
DNA 1: CTCTCAAATGAGCTGTCTCTC
DNA 2: GAGAGACAGCTCATTTGAGAG
B2: A3 (dsDNA)
DNA 1: CTCTCAAATTAGCTGGCTCCA
DNA 2: TGGAGCCAGCTAATTTGAGAG

Columns and labels:
GST-VIP1ΔN164 [1] = target: T1, GST-VIP1ΔN164; experiment: competition; EMSA, CYP707A1 probe, competitor 0.5 µM; Gel shift with DIG-labeled probes as in cited ref. 17; competitors 0.5 µM unless stated; binding buffer, pH and temperature not given; conditions: protein: recombinant; tags: N-terminal GST; chain copies: 2; blunt
GST-VIP1ΔN164 [2] = target: T1, GST-VIP1ΔN164; experiment: competition; EMSA, CYP707A1 probe; inhibits to same extent as A1; Gel shift with DIG-labeled probes as in cited ref. 17; competitors 0.5 µM unless stated; binding buffer, pH and temperature not given; conditions: protein: recombinant; tags: N-terminal GST; chain copies: 2; blunt

Binder | binding result (GST-VIP1ΔN164 [1]) | binding result (GST-VIP1ΔN164 [2])
B1 | binds | –
B2 | – | binds
